From patent publication US20240336927

Tested on: IgG SLE S6 (anti-BC autoantibody, polyclonal) (human)
Assay: EMSA
Conditions: reactivity relative to BC200 RNA

Question: For U4 snRNA, which binding signal is on record?
Answer: < 5%
